Assay: soluble on expression in E. coli; label from the status in PepcDB or PDB records

Sequence	soluble on expression in E. coli
MFRVTCIDLENGEFALYINGHYLSSEDGSGEKLYLGDILERLSRLPGVTTETVERPVPDSDEWSWNDVADSVFPACITLSRNMTVAAFKQRLSRFPDDALCCGTFWLASDFLALDSSLTEDDIDAAMELAQHCHDANDGFNWSHLQWAIDEVKRGG	not soluble
GSEQKKRRLEEGTRANSVAESSPPFPLRSKTSVGSTNSQITETKNKQGVYPITESNLRILEGEDRSEKAKELLKKYVSNVFENEKTLYIYCKYVMLHYGKDLVNPNEVDSLEFQIINGGITNILIKVKDMSKQAKYLIRLYGPKTDEIINREREKKISCILYNKNIAKKIYVFFTNGRIEEFMDGYALSREDIKNPKFQKLIAKNLKLLHDIKLNENLYKELQVTQKVPGTRPSFLWNTIWKYFHLLNEERKKICSFDAKANILKLIDFDVLRDSIVEVESLCKRENSPIVLCHCDLLSSNIINTVGGGEAGELGEAGETGEGGETGEGGETGEGGETGEGGEGDSISFIDFEYSCPMERAYDIANHFNEYAGFNCDWDLTPSKEEEYHFIMHYLGTDDEELINQLIREIQPFYICSHINWGLWSLLQGMHSSIDFDFINYGMTRLTASCLPIFRSKV	soluble
MSLYLWNIQISSAFLEVISLYEVTLRNTLVKALEPNYRQYSILNDNFIRALRHETREALIVAVNKVSLNSHKYSAVRGAHGMIQPLKIDPRDVPVGKVVAELNFVFWENMLSKTHSSRWKAHYKEAFPNLVVEPNIGIECQIARIHQITGKVRELRNRICHHEPIFDENKINLSELYTQIKEVLNYISRLDKYTKEGHHHHHH	not soluble
METKYRKPFVYEFITEKEVMNAANDLVKKGIEQKDIYVLTHEKERTDRIADNADVNTIGIKEEGLGTSIINVFQKTGDQLRNKMQELGLNEEEANFYEEKLDEGKILLFVKDLERVGEWLHERRCMYSI	not soluble
MNAADRVMQSYGRCCASTGFFDDFYRHFLASSPQIRAKFATTDMTAQKHLLRAGIMNLVMYARGMSDSKLRALGASHSRAALDIRPELYDLWLDALLMAVAEHDRDCDAETRDAWRDVMGRGIAVIKSYY	soluble
MGSSHHHHHHSSGLVPRGSHMNTNSNTMVMNDANQAQITATFTKKILAHLDDPDSNKLAQFVQLFNPNNCRIIFNATPFAQATVFLQMWQNQVVQTQHALTGVDYHAIPGSGTLICNVNCKVRFDESGRDKMGQDATVPIQPNNTGNRNRPNDMNKPRPLWGPYFGISLQLIIDDRIFRNDFNGVISGFNYNMVYKPEDSLLKI	soluble
MSLEQLLGRGEAAPSVRYDETIQKIIPIIKNSIRLPDDLRDRKTIWEFIRPQLMGIKALEAGFSMALWDWWGQKIGRPIFELLSVKTKMLPQTSYTISIGGFDELGAKLEEAKPYSILKVKLGTPKMDKEIITEIRRHTEKLIRVDANEGWTEDVALEMSFWLADRNIEFIEQPFPAKDLNSSIELKKKSPLEIFADENSLNSNDIKPIRHAFHGINIKLMKCGSLEEGKKMIDVARENGLKVMLGCMVETSVGITSASHLAGEVDFVDLDGNLLIKNDPYSGVLVNNGRLVLQKGNGSGVKLSSDYRNILEEGHHHHHH	soluble
MAQFLEKATSALSEAKESVTSTAESVTASLTDAEKTVNQTARSTLTDAETTVAASVETVKTEAAAAPDKASGVSTQAKDAVDKAFSRGIEGAKSLLQTFEAKSSDISSKLVGGVTNLVSGASSSTVANRDLPVSTDNQPLLASGEKTPWWKNCCGVLDLFKKDT	soluble
RIPVKYGNADGEYCKFPFLFNGKEYNSCTDTGRSDGFLWCSTTYNFEKDGKYGFCPHEALFTM	soluble
MTYILKTNQLTKVFKGKEVISSVNMHVKKGEIYGFLGPNGAGKTTIMKMITNLIKPTSGEIEIFGEKLTDTSYEVLKRMGTIIEYPIFYDKLTAKENLELHCEYMGYYDKNEIDHALHLVKLQGIDNKKVKDFSLGMKQRLGIARAIVTKPELLILDEPINGLDPIGIKELRDLFKMLCKEYGITLLVSSHILGEMELMADTIGVIQNGKLIKEVSMKSINGKQTEYIEITVPDVKRAAYILEDKLGIKNYKIMSGNMIRVYDTAVSQQAISKALIMNDVEIESINKKHSSLEEYFLNVMDGEGIHA	not soluble
MKSEPDTFSIDDLERVGTEPWNGVRNYQARNFMRDGMHVGDGVFFYHSNCKVPGIVGIAKVASAAYPDDTQFDPSSDYHDPKSTREDPRWMLVDVAFERKLTRTISLDEIKQQADALGEGFPLIARGNRLSILPVTAAQWKVLLAMELEHHHHHH	not soluble
